Biological target: recombinant rat F1-ATPase β-subunit (purified protein) (rat) (UniProt P10719)
Assay: BiaCore surface plasmon resonance, purified F1-ATPase β-subunit

Chain of UniProt P10719 (P10719 47-529): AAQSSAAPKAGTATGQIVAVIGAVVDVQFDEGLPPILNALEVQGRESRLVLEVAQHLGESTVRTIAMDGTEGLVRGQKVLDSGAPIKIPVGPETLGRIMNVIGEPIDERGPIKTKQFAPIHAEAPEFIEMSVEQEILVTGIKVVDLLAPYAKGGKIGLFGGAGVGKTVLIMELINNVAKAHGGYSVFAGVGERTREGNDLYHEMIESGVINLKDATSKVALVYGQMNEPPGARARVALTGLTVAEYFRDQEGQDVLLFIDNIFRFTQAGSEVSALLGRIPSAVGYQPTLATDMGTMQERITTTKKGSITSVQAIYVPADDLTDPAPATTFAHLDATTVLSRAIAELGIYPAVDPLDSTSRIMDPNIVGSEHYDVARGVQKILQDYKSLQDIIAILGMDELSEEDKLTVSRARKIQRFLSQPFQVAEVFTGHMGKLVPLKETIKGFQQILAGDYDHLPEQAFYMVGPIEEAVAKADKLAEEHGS

Kd: 150 nM
Substance: enterostatin (peptide)
